Several values for one entry are separate records, joined by “and”; a condition that tells them apart may be missing. Equal values may be shown once.
Assays:
hen egg-white lysozyme [1] = target: T1, hen egg-white lysozyme (hen, UniProt P00698 19-147); assay: Biacore kinetics, HEL immobilised on CM5 chip, buffer E (reducing), 25 °C, 1:1 Langmuir model
T1 construct: also called HEL

hen egg-white lysozyme [2] = target: T1, hen egg-white lysozyme; assay: Biacore kinetics, HEL immobilised; Kd' = koff/kon
hen egg-white lysozyme [3] = target: T1, hen egg-white lysozyme; assay: Biacore, HEL immobilised; Kd'' dissociation constant at steady state
hen egg-white lysozyme [4] = target: T1, hen egg-white lysozyme; assay: competition Biacore in solution, buffer D; free H4S measured on immobilised HEL
[5] = target: T2, hen egg-white lysozyme (HEL) (Gallus gallus, UniProt P00698); assay: Titration of H4S conjugates with HEL, monitored by fluorescence; format: binding; conditions: for sr: relative sensitivity of the conjugate at a fixed concentration of 0.3 µM (Equation 8), buffer C
T2 construct: hen egg-white lysozyme (HEL); purchased Sigma
Description: (§1) The binding and fluorescence experiments were performed at equilibrium as if the preparations of conjugates were homogeneous, i. e. as if yc = 1. The binding reactions were conducted by incubating 0.3 µM of conjugate with variable concentrations of the HEL or BSA antigens in a volume of 1 mL, for 30 min in the dark with gentle shaking. The reactions were carried out in Buffer C or in a mixture v:(1-v) of calf serum and Buffer C as indicated in example 2.
The conjugate (or biosensor) B and antigen A form a 1:1 complex B:A according to the reaction: B + A↔B:A [formula] At equilibrium, the concentration [B:A] of the complex is given by the equation: [B:A] = 0.5{[B]0+[A]0+Kd-(((([B]0+[A]0+Kd))^2-4[B]0[A]0))^(1/2)} [formula] where Kd is the dissociation constant, and [A]0 and [B]0 are the total concentrations of A and B, respectively (Renard et al., 2003).
The fluorescence of the IANBD conjugates was excited at 485 nm (5 nm slit width) and its intensity measured between 520 and 550 nm (20 nm slit width) with a FP-6300 spectrofluorometer (Jasco). The signal of HEL alone or BSA alone was measured in an independent experiment and subtracted from the global signal of the binding mixture to give the specific fluorescence intensity F of each conjugate. The intensity F at a given value of [A]0 satisfies the following equation: (F-F0)/F0 = ΔF/F0 = (ΔF∞/F0)([B:A]/[B]0) [formula] where F0 and F∞ are the values of F at zero and saturating concentrations of A (Renard et al., 2003). The values of ΔF∞/F0, Kd, and [B]0 could be determined by fitting Equation 5, in which [B:A] is given by Equation 4, to the experimental values of ΔF/F0, measured in a titration experiment. The fittings were performed with the Kaleidagraph software (Synergy Software).
The sensitivity s and relative sensitivity sr of a conjugate can be defined by the following equations for the low values of [A]0, i. e. in the initial part of the titration curve: ΔF = s[A]0 [formula] ΔF/F0 = sr [A]0 /[B]0 [formula] s and sr can be expressed as functions of characteristic parameters of the conjugate: sr = (ΔF∞/F0)([B]0/(Kd+[B]0)) [formula] s = fb sr [formula] where fb = F0/[B]0 is the molar fluorescence of the free conjugate (Renard and Bedouelle, 2004). Equation 8 implies that sr is maximal when the biosensor B is present at a concentration [B]0 >> Kd, as every newly titrated molecule A then forms a complex. Equation 6 implies that the lower limit of detection δ[A]0 of the conjugate is linked to the lower limit of measurement of the spectrofluorometer δF by the following equations: δ[A]0 = s^-1 δF = sr^-1 [B]0 (δF/F0) [formula]

[6] = target: bovine serum albumin (BSA) (Bos taurus, UniProt P02769); assay: Specificity: titration of H4S conjugates with heterologous antigen BSA, monitored by fluorescence; conditions: for ΔF∞/F0: BSA as antigen, buffer C, 0.3 µM conjugate; for relative sensitivities sr lower for BSA than for HEL: [B]0 = 0.3 µM
[7] = target: T2, hen egg-white lysozyme (HEL); assay: Selectivity: fluorescence signal of conjugate in mixtures of calf serum and buffer C; format: binding; conditions: 0.3 µM conjugate, 10 µM HEL
Description: as §1
The selectivity of a biosensor refers to the extent to which it can recognize a particular analyte in a complex mixture without interference from other components (Vessman et al., 2001). The selectivity of the H4S(K24ANBD) conjugate was characterized by comparing its fluorescence properties in serum and in buffer C. More specifically, the variations of the F0 and F10µM parameters were measured as functions of the concentration in serum (Figure 3). Given that Kd = 0.1 µM for H4S(K24ANBD), this conjugate was fully saturated with HEL at 10 µM. […] As expected, the absorbance of the serum alone increased linearly with its concentration, in agreement with the Beer-Lambert law, at both 485 nm and 536 nm, which were the wavelengths of fluorescence excitation and emission in our experiments. […] The same increase and decrease was observed when measuring the fluorescence of a conjugate between IANBD and 2-mercaptoethanol. […]

hen egg-white lysozyme [8] = target: T1, hen egg-white lysozyme; assay: from Kd in solution: fluorescence titration of conjugate against competition Biacore of H4S(wt)
hen egg-white lysozyme [9] = target: T1, hen egg-white lysozyme; assay: fluorescence titration in solution, 0.3 µM conjugate, buffer C, 25 °C (fit R = 0.72)
bovine serum albumin = target: T3, bovine serum albumin (bovine, UniProt P02769 25-607); assay: fluorescence titration with BSA, 0.3 µM conjugate, buffer C
T3 construct: Heterologous antigen used as specificity control; also called BSA

hen egg-white lysozyme [10] = target: T1, hen egg-white lysozyme; assay: fluorescence titration in solution, 0.3 µM conjugate, buffer C, 25 °C
hen egg-white lysozyme [11] = target: T1, hen egg-white lysozyme; assay: comparison of Kd in solution (fluorescence titration against competition Biacore)

| Molecule | sr ([5]; HEL) | ΔF∞/F0 [6] | relative sensitivities sr lower for BSA than for HEL [6] | ΔΔG (conjugate against H4S(wt)) (hen egg-white lysozyme [8]) | Kd (bovine serum albumin) | Kd (hen egg-white lysozyme [10]) | ΔF∞/F0 (maximal relative variation of fluorescence on HEL binding) (hen egg-white lysozyme [10]) | further results |
| --- | --- | --- | --- | --- | --- | --- | --- | --- |
| H4S(wt) (designed binder, Nanofitin derived from Sac7d (Sulfolobus acidocaldarius), H4 with Cys29 changed into Ser29; His-tagged; also called H4S protein; parental Nanofitin H4S(wt)) MRGSHHHHHHGSVKVKFFWNGEEKEVDTSKIVWVKRAGKSVLFIYDDNGKNGYGDVTEKDAPKELLDMLARAEREKKLN |  |  |  |  |  |  |  | koff (hen egg-white lysozyme [1]): 0.015 s⁻¹; kon (hen egg-white lysozyme [1]): 490000 M⁻¹ s⁻¹; Kd (hen egg-white lysozyme [2]): 31 nM; Kd (hen egg-white lysozyme [3]): 18 nM; Kd (hen egg-white lysozyme [4]): 40.3 nM |
| Lys24: H4S conjugate: residue Lys24 changed into cysteine and coupled with IANBD (SEQ ID NO: 61) (conjugate, IANBD fluorophore on Cys24) MRGSHHHHHHGSVKVKFFWNGEEKEVDTSKIVWVCRAGKSVLFIYDDNGKNGYGDVTEKDAPKELLDMLARAEREKKLN | 6.61 | 0.26± 0.01 | 106 fold |  |  |  |  | Kd ([5]; HEL, rounded value quoted in text, read-out: Kd): 100 nM; lower limit of detection δ[A]0 ([5]; [B]0 = 0.3 µM, δF/F0 = […] (Equation 10)): 0.35 nM; sr ([5]; HEL, listed as H4S(Lys24ANBD)): 6.6; (F10µM - F0)/F0 ([7]; in ≤ 50 % serum): ≥ 0.25; concentration of serum in which the conjugate could still operate ([7]; serum (v/v) in buffer C): ≤ 50% |
| H4S conjugate, IANBD fluorophore coupled at position Trp22 (designed binder, Cys at position 22 (H4S numbering) coupled to IANBD ester (ANBD)) MRGSHHHHHHGSVKVKFFWNGEEKEVDTSKIVCVKRAGKSVLFIYDDNGKNGYGDVTEKDAPKELLDMLARAEREKKLN |  |  |  | ≥ 1.5 kcal/mol |  |  |  | Kd (hen egg-white lysozyme [9]): 1230 nM |
| H4S(A26ANBD) (designed binder, Cys at position 26 (H4S numbering) coupled to IANBD ester (ANBD), also called Ala26) MRGSHHHHHHGSVKVKFFWNGEEKEVDTSKIVWVKRCGKSVLFIYDDNGKNGYGDVTEKDAPKELLDMLARAEREKKLN |  |  |  | ≥ 0.5 kcal/mol and ≤ 1.2 kcal/mol | 1400 nM | 206 nM | 7.9 |  |

Now from value to molecule, other results behind:

| sr ([5]; HEL) | ΔF∞/F0 [6] | relative sensitivities sr lower for BSA than for HEL [6] | ΔΔG (conjugate against H4S(wt)) (hen egg-white lysozyme [8]) | Kd (bovine serum albumin) | Kd (hen egg-white lysozyme [10]) | ΔF∞/F0 (maximal relative variation of fluorescence on HEL binding) (hen egg-white lysozyme [10]) | Molecule | further results |
| --- | --- | --- | --- | --- | --- | --- | --- | --- |
| 4.66 | 0.73 ± 0.04 | 36 fold |  |  |  |  | Ala26: H4S conjugate: residue Ala26 changed into cysteine and coupled with IANBD (SEQ ID NO: 62) (conjugate, IANBD fluorophore on Cys26) MRGSHHHHHHGSVKVKFFWNGEEKEVDTSKIVWVKRCGKSVLFIYDDNGKNGYGDVTEKDAPKELLDMLARAEREKKLN |  |
|  |  |  | ≥ 0.5 kcal/mol and ≤ 1.2 kcal/mol | 1000 nM | 98 nM | 8.8 | H4S(K24ANBD) (designed binder, Cys at position 24 (H4S numbering) coupled to IANBD ester (ANBD), also called H4S(Lys24ANBD); Lys24) MRGSHHHHHHGSVKVKFFWNGEEKEVDTSKIVWVCRAGKSVLFIYDDNGKNGYGDVTEKDAPKELLDMLARAEREKKLN | fold lower affinity than the parental protein H4S(wt) (hen egg-white lysozyme [11]): ~2 fold |
